US12404336 (dated 2025)
Blank lines part the entries; values can stand above or below the binder they belong to.

Assays:
[1] = target: T1, human LAG-3 fused to mouse IgG2a (huLAG-3-mIgG2a) (human, UniProt P18627 23-450); experiment: cell-based blocking of LAG-3/MHC II
T1 chain: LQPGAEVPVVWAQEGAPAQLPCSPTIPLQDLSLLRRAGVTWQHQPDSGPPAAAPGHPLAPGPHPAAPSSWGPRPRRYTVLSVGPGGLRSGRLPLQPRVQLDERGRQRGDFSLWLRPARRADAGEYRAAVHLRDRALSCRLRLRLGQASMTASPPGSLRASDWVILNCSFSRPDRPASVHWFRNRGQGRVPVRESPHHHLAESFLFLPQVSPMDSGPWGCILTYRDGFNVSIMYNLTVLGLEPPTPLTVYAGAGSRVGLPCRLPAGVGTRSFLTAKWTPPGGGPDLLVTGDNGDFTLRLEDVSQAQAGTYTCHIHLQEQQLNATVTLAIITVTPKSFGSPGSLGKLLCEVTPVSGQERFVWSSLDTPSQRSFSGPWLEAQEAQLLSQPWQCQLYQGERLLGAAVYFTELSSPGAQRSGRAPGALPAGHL

[2] = target: T2, human TIGIT on transfected CHOK1 cells (human, UniProt Q495A1 22-244); experiment: cell-based blocking of TIGIT/PVR
T2 chain: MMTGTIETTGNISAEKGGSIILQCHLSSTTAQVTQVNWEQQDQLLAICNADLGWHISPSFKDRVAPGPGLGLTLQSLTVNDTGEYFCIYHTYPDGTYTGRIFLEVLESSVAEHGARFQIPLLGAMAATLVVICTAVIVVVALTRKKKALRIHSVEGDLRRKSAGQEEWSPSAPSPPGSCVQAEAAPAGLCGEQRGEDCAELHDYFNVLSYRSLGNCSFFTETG

[3] = target: T3, His tagged human TIGIT protein (human, UniProt Q495A1 22-141); experiment: sandwich ELISA; simultaneous binding of LAG-3-muFc and His-tagged TIGIT
T3 chain: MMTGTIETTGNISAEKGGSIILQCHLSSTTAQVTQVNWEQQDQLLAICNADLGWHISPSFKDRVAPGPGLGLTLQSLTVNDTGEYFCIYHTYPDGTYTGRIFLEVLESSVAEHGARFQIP

[4] = target: His tagged human PD-1 protein (human, UniProt Q15116 25-167); experiment: BLI
His tagged human PD-1 protein, sequence (Q15116 25-167): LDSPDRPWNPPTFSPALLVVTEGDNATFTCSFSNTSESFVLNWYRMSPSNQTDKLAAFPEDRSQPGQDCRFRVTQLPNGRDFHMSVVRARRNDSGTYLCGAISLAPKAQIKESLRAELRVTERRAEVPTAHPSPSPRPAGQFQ

[5] = target: T3, His tagged human TIGIT protein; experiment: BLI
[6] = target: T1, human LAG-3 fused to mouse IgG2a …; experiment: cell-based blocking of LAG-3-muFc binding to MHC on Raji cells
[7] = target: T1, human LAG-3 fused to mouse IgG2a …; experiment: SPR
His tagged human LAG-3 = target: T4, His tagged human LAG-3 (human, UniProt P18627 23-450); experiment: SPR
T4 chain: T1 chain

[8] = target: T5, human LAG-3 on CHO-K1 cells (human, UniProt P18627 23-525); experiment: flow cytometry binding
T5 chain: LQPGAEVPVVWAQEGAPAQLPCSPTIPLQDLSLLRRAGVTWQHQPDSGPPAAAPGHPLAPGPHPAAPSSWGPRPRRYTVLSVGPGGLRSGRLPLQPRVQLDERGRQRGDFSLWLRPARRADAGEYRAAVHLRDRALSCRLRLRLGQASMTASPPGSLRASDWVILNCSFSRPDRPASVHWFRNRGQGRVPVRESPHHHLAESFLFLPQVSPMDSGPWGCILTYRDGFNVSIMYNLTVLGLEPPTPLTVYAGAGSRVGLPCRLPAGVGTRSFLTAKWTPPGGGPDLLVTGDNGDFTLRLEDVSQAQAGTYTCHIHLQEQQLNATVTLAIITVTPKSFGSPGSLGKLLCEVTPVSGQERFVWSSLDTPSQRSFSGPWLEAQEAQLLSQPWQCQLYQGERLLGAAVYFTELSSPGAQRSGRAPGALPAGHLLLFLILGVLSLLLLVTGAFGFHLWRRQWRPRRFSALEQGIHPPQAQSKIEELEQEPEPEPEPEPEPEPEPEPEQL

B3: Bi-TPM-94A (antibody)
chain 1: not shown
chain 2: DIQMTQSPSFLSASVGDRVTITCKASQNVGTNVAWYQQKPGKAPKALIYSASYRYSGVPSRFSGSGSGTEFTLTISSLQPEDFATYYCQQYYSYPYTFGQGTKLEIKRTVAAPSVFIFPPSDEQLKSGTASVVCLLNNFYPREAKVQWKVDNALQSGNSQESVTEQDSKDSTYSLSSTLTLSKADYEKHKVYACEVTHQGLSSPVTKSFNRGEC
Kd [4]: 2.9 nM

B4: Bi-TPM-94B (antibody)
chain 1: not shown
chain 2: B3 chain 2
Kd [4]: 2.7 nM
IC50 [2]: 0.13 nM
Kd [5]: 1.7 nM

B5: chimeric 2L2A antibody (antibody, V domains shown)
VH: EVQLQQSGPVLVKPGASVKMSCKASGYTLTDYYMNWMKQSHGKSLEWIGVINPYNGDTSCNQKFKGKATLTADKSSSTAYMELNSLTSDDSAVYYCVRDDGYYVHYFDYWGQGTTLTVSS
VL: DIQMTQSPSSLSASLGERVTLTCRASQDISSRLTWLQQEPDGTIKRLIYATSSLDSGVPKRFNGSRSGSDYSLTISSLESEDFVDYYCLQYASSPLTFGAGTKLELKR
IC50 [6]: 3.74 nM

B6: 2L2A.1 (antibody, V domains shown)
VH: QVQLVQSGAEVKKPGASVKVSCKASGYTLTDYYMNWMRQAPGQGLEWMGVINPYNGDTSYNQKFKGRVTMTRDTSTSTVYMELSSLRSEDTAVYYCVRDDGYYVHYFDYWGQGTLVTVSS
VL: DIQMTQSPSSLSASVGDRVTITCRASQDISSRLTWLQQEPEKAPKRLIYATSSLDSGVPKRFSGSGSGTDFTLTISSLQPEDFATYYCLQYASSPLTFGGGTKVEIK
IC50 [6]: 1.97 nM
Kd [7]: 1 pM
Kd (His tagged human LAG-3): 1.42 nM
EC50 [8]: 1.48 nM

Next, values leading:

IC50 [1]: 0.7 nM
IC50 [2]: 0.24 nM
EC50 [3]: 0.0107 µg/mL
B1: Bi-LT-1 (antibody)
chain 1: not shown
chain 2: DIQMTQSPSSLSASVGDRVTITCRASQDISSRLTWLQQKPEKAPKRLIYATSSLDSGVPSRFSGSGSGTDFTLTISSLQPEDFATYYCLQYASSPLTFGGGTKVEIKRTVAAPSVFIFPPSDEQLKSGTASVVCLLNNFYPREAKVQWKVDNALQSGNSQESVTEQDSKDSTYSLSSTLTLSKADYEKHKVYACEVTHQGLSSPVTKSFNRGEC

IC50 [1]: 0.9 nM
IC50 [2]: 0.22 nM
EC50 [3]: 0.0108 µg/mL
B2: Bi-LT-3 (antibody)
chain 1: not shown
chain 2: B1 chain 2
